This assay concerns Xenopus oocytes. As to the kind of experiment: 4-MTB uptake in Xenopus oocytes expressing wildtype or mutant BrGTR2-A2 proteins. The assay is classed as cell-based. The settings on record: 0.5 mM 4-MTB for one hour.

B1: BrGTR2-A2: Brassica rapa GTR2-A2 protein, SEQ ID NO: 66 (protein, listed as Brassica rapa)
chain: MERKPLEVESTDHQKPSSAVYDGSATAVDSVEEEVQETKLVYRGWKVMPFIIGNETFEKLGIIGTLSNLLVYLTAVFNMKSITAATIINAFSGTINFGTFVAAFLCDTYFGRYKTLTVAVIACFLGSLVILLTAAVPQLHPAPCGIALTCTGPSGGQIAFLLMGLAFLVVGAGGIRPCNLAFGADQFNPKSESGKRGIDSFFNWYFFTFTFAQILSLTLVVYIQSNVSWTIGLTIPVVLMFLACVIFFAGDKLYVKIKASGSPLASIAQVITVAIKKRGLKAVKQPWVNLYNYYPLNYANSKLKYTDQFRFLDKAAILAPEDKLEADGKPTDPWKLCTMQQVEEVKCIVRVLPIWFASSIYYLTITQQMTYPVFQALQSDRRLGSGGFVIPAATYVVFLMTGMTVFIIIYDRVLVPTLRRITGIDTGITLLQRIGTGIFFAFLSLVVSGFVEERRRTFALTKPTLGMAPRKGEISSMSAMWLIPQLTLAGVAEAFGAIGQMEFYYKQFPENMRSFAGSIFYVGGGVSSYLGSFLIATVHRTTQNSAGGNWLAEDLNKGRLDLFYFMIAGILAVNFAYFLVMSRWYRYKGSDDEVTAYETNGDVIKQQDKNKV
For B1, for the setting “pH 5, non-injected oocytes no detectable uptake”, the 4-MTB imported entry is on record as “about 2.5 nmol 4-MTB per hour per oocyte”.

B2: BrGTR2 (E192K): BrGTR2-A2 protein with Glu to Lys at position 192 of SEQ ID NO: 66 (protein, listed as Brassica rapa)
chain: MERKPLEVESTDHQKPSSAVYDGSATAVDSVEEEVQETKLVYRGWKVMPFIIGNETFEKLGIIGTLSNLLVYLTAVFNMKSITAATIINAFSGTINFGTFVAAFLCDTYFGRYKTLTVAVIACFLGSLVILLTAAVPQLHPAPCGIALTCTGPSGGQIAFLLMGLAFLVVGAGGIRPCNLAFGADQFNPKSKSGKRGIDSFFNWYFFTFTFAQILSLTLVVYIQSNVSWTIGLTIPVVLMFLACVIFFAGDKLYVKIKASGSPLASIAQVITVAIKKRGLKAVKQPWVNLYNYYPLNYANSKLKYTDQFRFLDKAAILAPEDKLEADGKPTDPWKLCTMQQVEEVKCIVRVLPIWFASSIYYLTITQQMTYPVFQALQSDRRLGSGGFVIPAATYVVFLMTGMTVFIIIYDRVLVPTLRRITGIDTGITLLQRIGTGIFFAFLSLVVSGFVEERRRTFALTKPTLGMAPRKGEISSMSAMWLIPQLTLAGVAEAFGAIGQMEFYYKQFPENMRSFAGSIFYVGGGVSSYLGSFLIATVHRTTQNSAGGNWLAEDLNKGRLDLFYFMIAGILAVNFAYFLVMSRWYRYKGSDDEVTAYETNGDVIKQQDKNKV
With B2, the “4-MTB uptake activity of mutant BrGTR2-A2 protein versus wildtype” value is listed as “reduction in glucosinolate uptake”.

B3: BrGTR2 (G126R): BrGTR2-A2 protein with Gly to Arg at position 126 of SEQ ID NO: 66 (protein, listed as Brassica rapa)
chain: MERKPLEVESTDHQKPSSAVYDGSATAVDSVEEEVQETKLVYRGWKVMPFIIGNETFEKLGIIGTLSNLLVYLTAVFNMKSITAATIINAFSGTINFGTFVAAFLCDTYFGRYKTLTVAVIACFLRSLVILLTAAVPQLHPAPCGIALTCTGPSGGQIAFLLMGLAFLVVGAGGIRPCNLAFGADQFNPKSESGKRGIDSFFNWYFFTFTFAQILSLTLVVYIQSNVSWTIGLTIPVVLMFLACVIFFAGDKLYVKIKASGSPLASIAQVITVAIKKRGLKAVKQPWVNLYNYYPLNYANSKLKYTDQFRFLDKAAILAPEDKLEADGKPTDPWKLCTMQQVEEVKCIVRVLPIWFASSIYYLTITQQMTYPVFQALQSDRRLGSGGFVIPAATYVVFLMTGMTVFIIIYDRVLVPTLRRITGIDTGITLLQRIGTGIFFAFLSLVVSGFVEERRRTFALTKPTLGMAPRKGEISSMSAMWLIPQLTLAGVAEAFGAIGQMEFYYKQFPENMRSFAGSIFYVGGGVSSYLGSFLIATVHRTTQNSAGGNWLAEDLNKGRLDLFYFMIAGILAVNFAYFLVMSRWYRYKGSDDEVTAYETNGDVIKQQDKNKV
For the molecule B3, the “4-MTB uptake activity of mutant BrGTR2-A2 protein versus wildtype” value is “almost no uptake activity”.

B4: BrGTR2 (S359F): BrGTR2-A2 protein with Ser to Phe at position 359 of SEQ ID NO: 66 (protein, listed as Brassica rapa)
chain: MERKPLEVESTDHQKPSSAVYDGSATAVDSVEEEVQETKLVYRGWKVMPFIIGNETFEKLGIIGTLSNLLVYLTAVFNMKSITAATIINAFSGTINFGTFVAAFLCDTYFGRYKTLTVAVIACFLGSLVILLTAAVPQLHPAPCGIALTCTGPSGGQIAFLLMGLAFLVVGAGGIRPCNLAFGADQFNPKSESGKRGIDSFFNWYFFTFTFAQILSLTLVVYIQSNVSWTIGLTIPVVLMFLACVIFFAGDKLYVKIKASGSPLASIAQVITVAIKKRGLKAVKQPWVNLYNYYPLNYANSKLKYTDQFRFLDKAAILAPEDKLEADGKPTDPWKLCTMQQVEEVKCIVRVLPIWFASFIYYLTITQQMTYPVFQALQSDRRLGSGGFVIPAATYVVFLMTGMTVFIIIYDRVLVPTLRRITGIDTGITLLQRIGTGIFFAFLSLVVSGFVEERRRTFALTKPTLGMAPRKGEISSMSAMWLIPQLTLAGVAEAFGAIGQMEFYYKQFPENMRSFAGSIFYVGGGVSSYLGSFLIATVHRTTQNSAGGNWLAEDLNKGRLDLFYFMIAGILAVNFAYFLVMSRWYRYKGSDDEVTAYETNGDVIKQQDKNKV
Turning to B4, the “4-MTB uptake activity of mutant BrGTR2-A2 protein versus wildtype” value is reported as “increased uptake activity”.

B5: BrGTR2 (G145R): BrGTR2-A2 protein with Gly to Arg at position 145 of SEQ ID NO: 66 (protein, listed as Brassica rapa)
chain: MERKPLEVESTDHQKPSSAVYDGSATAVDSVEEEVQETKLVYRGWKVMPFIIGNETFEKLGIIGTLSNLLVYLTAVFNMKSITAATIINAFSGTINFGTFVAAFLCDTYFGRYKTLTVAVIACFLGSLVILLTAAVPQLHPAPCRIALTCTGPSGGQIAFLLMGLAFLVVGAGGIRPCNLAFGADQFNPKSESGKRGIDSFFNWYFFTFTFAQILSLTLVVYIQSNVSWTIGLTIPVVLMFLACVIFFAGDKLYVKIKASGSPLASIAQVITVAIKKRGLKAVKQPWVNLYNYYPLNYANSKLKYTDQFRFLDKAAILAPEDKLEADGKPTDPWKLCTMQQVEEVKCIVRVLPIWFASSIYYLTITQQMTYPVFQALQSDRRLGSGGFVIPAATYVVFLMTGMTVFIIIYDRVLVPTLRRITGIDTGITLLQRIGTGIFFAFLSLVVSGFVEERRRTFALTKPTLGMAPRKGEISSMSAMWLIPQLTLAGVAEAFGAIGQMEFYYKQFPENMRSFAGSIFYVGGGVSSYLGSFLIATVHRTTQNSAGGNWLAEDLNKGRLDLFYFMIAGILAVNFAYFLVMSRWYRYKGSDDEVTAYETNGDVIKQQDKNKV
In the case of B5, the “4-MTB uptake activity of mutant BrGTR2-A2 protein versus wildtype” value is on record as “no significant change in uptake of 4-MTB”.

Values taken from patent publication US20140137294A1, “GLUCOSINOLATE TRANSPORTER PROTEIN AND USES THEREOF” (UNIVERSITY OF COPENHAGEN, priority 2010, published 2014).
